What was measured:
[1] = tested on: CRBN; experiment: Internalization and degradation of CD28-degron-GFP in 293T cells; type: cell-based, human; conditions: 10 μM pomalidomide, 293T cells with biallelic CRBN exon 5 disruption
Method: Transduced cells were incubated with a range of Pomalidomide concentrations or DMSO for 20 hours. Cells were analyzed by flow cytometry for eGFP and mCherry fluorescence. 1000 mCherry+ cells were analyzed per sample, and the geometric mean of the per-cell eGFP/mCherry ratio was calculated in Flowjo. In Pomalidomide dose titration studies, the EC50 was calculated by non-linear regression in Prism. Experiments were performed in triplicate. In some cases cell surface protein expression was assayed in parallel with the above reporter assay; cells were stained with anti-CD28-BV421 antibody (BD Biosciences 562613) at a 1:50 dilution in FACS buffer (PBS+2% FCS+2 mM EDTA) for 10 minutes on ice. Cells were washed with FACS buffer and analyzed by flow cytometry.

[2] = molecular target: CRBN (Homo sapiens, UniProt Q96SW2); experiment: EGFP/mCherry reporter of zinc finger degron sequences, IMiD titration; type: cell-based; set-up: endogenous in cells; conditions: HEK239T cells, drug titration, 20 h
Method: A hybrid sequence of two distinct CRBN substrates, IKZF3 and ZFP91, was constructed and examined for activity within an “OFF-switch” system of the instant disclosure. In such experiments, reporter constructs containing zinc finger sequences were expressed in HEK239T cells via lentiviral transduction, after which the cells were treated with a titration of (IMiD) drug concentrations for 20 h. Flow cytometry was used to measure the EGFP/mCherry ratio normalized to the average of three DMSO treated controls. Data shown in FIG. 10 are representative of two experimental replicates (technical replicates=0, experimental replications=2).

[3] = tested on: IKZF3aa130-189; experiment: BRET assay, dimerization of IKZF3aa130-189 with CRBN or minCRBN variants; type: cell-based, human; conditions: pomalidomide dose-response
Method: Specifically, CRBN deletion variants were engineered to retain binding to Pom/IKZF3 but not DDB1/CUL4. Four deletion variants were generated in CRBN that removed the DDB1-binding domain, as shown in the middle image (NTD is the N-terminal domain; LLP1 is Lon-like protease domain 1 (split into LLP1-N and LLP1-C regions); TBD is the Thalidomide binding domain). At middle, BRET assays were performed upon 293T cells harboring bialleleic CRISPR/Cas9 disruption of endogenous CRBN (293T-CRBNΔe5), to assess dimerization between IKZF3aa130-189 and CRBN or minCRBN variants (dose-response data shown are CRBN, minCRBN1, minCRBN2, minCRBN3 and minCRBN4). […] Pomalidomide-dependent dimerization was observed between IKZF3aa130-189-HaloTag and CRBN-Nanoluciferase (NLuc) or minCRBN2-4-NLuc. […] 1 day after transfection, cells were exposed to 1 μM pomalidomide for the number of hours indicated and GFP and mCherry fluorescence was measured by flow cytometry (eGFPmCherry levels were detected as 0.5 or less for the CRBN trace).
(§1) 293T cells were co-transfected with pFC14K and pFC32K plasmids expressing IKZF3-HaloTag and CRBN-Nanoluciferase fusion proteins and incubated overnight. Cells were then trypsinized and seeded into 96 well plates, at 40,000 cells per well. The BRET assay was performed per manufacturer's instructions (Promega™). In brief, cells were incubated for 2 hours with varying concentrations of Pomalidomide or DMSO, 10 μM MG132, and 100 nM HaloTag NanoBRET 618 Ligand. NanoBRET Nano-Glo substrate was added and donor (460 nm) and acceptor (618 nm) emission were measured within 10 minutes (EnVision, Perkin Elmer). Mean corrected milliBRET units (mBU) was calculated.
Tested forms of minimal CRBN included minCRBN1, minCRBN2, minCRBN3 and minCRBN4, each of which were aligned against the wild-type CRBN (FIG. 1; all tested minCRBNs lacked the DDB1-binding domain—minCRBN1 comprised amino acids 339-442 of CRBN (including the TBD); minCRBN2 comprised amino acids 317-442 of CRBN (including TBD and an N-terminal extended sequence relative to minCRBN1); minCRBN3 included all CRBN sequence other than amino acids 194-207 (deletion of the DDB1-binding domain); and minCRBN4 included all sequences other than amino acids 187-260 (deletion of the DDB1-binding domain)).

[4] = tested on: CD19scFv-CD28-IKZF3; experiment: BRET, split receptor: membrane-tethered or untethered minCRBN3 paired with CD19scFv-CD28-IKZF3; type: cell-based, human; conditions: 293T cells, 10 μM MG132, 2 hours of drug treatment
Method: as §1
Specific minCRBN-presenting polypeptide tethers to the plasma membrane that were tested included: (1) a CD8/CD28 system in which about 36 amino acids of TMD and cytosolic sequence connected to the co-stimulatory/minCRBN domains of the thereby membrane-tethered polypeptide; (2) a PD1 Y F ITAM/ITSM construct, in which minCRBN was tethered to the plasma membrane via a TMD and cytosolic domain of approximately 100 amino acids in length; and (3) a LYN-CD28 construct, in which membrane tethering was achieved via myristoyl/palmitoylation.

CRBN (Homo sapiens, UniProt Q96SW2), sequence (Q96SW2 whole entry): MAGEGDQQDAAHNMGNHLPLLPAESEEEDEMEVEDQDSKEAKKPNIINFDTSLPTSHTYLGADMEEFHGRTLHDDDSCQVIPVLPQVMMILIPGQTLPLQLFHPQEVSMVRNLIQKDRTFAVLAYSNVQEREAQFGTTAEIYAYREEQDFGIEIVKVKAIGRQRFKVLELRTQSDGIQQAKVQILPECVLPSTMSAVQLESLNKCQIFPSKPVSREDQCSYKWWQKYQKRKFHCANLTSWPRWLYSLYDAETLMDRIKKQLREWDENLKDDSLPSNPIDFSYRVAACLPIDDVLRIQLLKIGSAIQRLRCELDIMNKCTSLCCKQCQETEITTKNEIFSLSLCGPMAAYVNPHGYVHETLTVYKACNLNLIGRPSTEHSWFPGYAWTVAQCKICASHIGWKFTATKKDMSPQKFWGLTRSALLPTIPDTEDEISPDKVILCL
IKZF3aa130-189, sequence (Q9UKT9 130-189 limits assumed, one chain of several): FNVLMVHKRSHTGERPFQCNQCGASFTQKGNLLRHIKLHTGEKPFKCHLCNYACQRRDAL
CD19scFv-CD28-IKZF3, sequence (as listed by the source, one chain of several): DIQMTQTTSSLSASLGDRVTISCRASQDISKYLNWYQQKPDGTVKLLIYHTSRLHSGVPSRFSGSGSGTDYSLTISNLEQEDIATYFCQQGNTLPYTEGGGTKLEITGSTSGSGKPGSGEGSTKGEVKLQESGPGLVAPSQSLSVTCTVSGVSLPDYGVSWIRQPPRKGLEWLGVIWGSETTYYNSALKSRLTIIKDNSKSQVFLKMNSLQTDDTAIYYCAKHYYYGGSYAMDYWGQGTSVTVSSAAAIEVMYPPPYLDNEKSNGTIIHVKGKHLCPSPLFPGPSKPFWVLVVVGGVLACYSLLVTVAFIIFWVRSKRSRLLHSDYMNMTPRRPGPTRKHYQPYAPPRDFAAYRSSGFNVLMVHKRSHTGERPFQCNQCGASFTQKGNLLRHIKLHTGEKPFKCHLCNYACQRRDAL

In the case of “CD28-degron: In frame fusion of full length CD28, a SG linker, and IKZF3 (amino acids 130-189); SEQ ID NO: 82”, the “degradation (normalized GFP levels)” value [1] is reported as “no significant decline in normalized GFP levels”.

With “IKZF3/ZFP91: Reverse hybrid, IKZF3 amino acids 146-156 + ZFP91 amino acids 411-422, SEQ ID NO: 33 (FQCNQCGASFTQKASLNWHMKKH)” the “IMiD sensitivity (EGFP/mCherry ratio normalized to DMSO)” value [2] was “minimal IMiD sensitivity/responsiveness”.

“ZFP91/IKZF3 hybrid: ZFP91 amino acids 400-410 + IKZF3 amino acids 157-168, SEQ ID NO: 32 (LQCEICGFTCRQKGNLLRHIKLH)” was tested, and the “IMiD sensitivity (EGFP/mCherry ratio normalized to DMSO)” value [2] was “greater IMiD sensitivity than either the ZFP91 degron sequence alone or the IKZF3 degron sequence alone”.

B1: minCRBN3: All CRBN sequence other than amino acids 194-207 (deletion of the DDB1-binding domain), SEQ ID NO: 3 (protein)
chain: AGEGDQQDAAHNMGNHLPLLPESEEEDEMEVEDQDSKEAKKPNIINFDTSLPTSHTYLGADMEEFHGRTLHDDDSCQVIPVLPQVMMILIPGQTLPLQLFHPQEVSMVRNLIQKDRTFAVLAYSNVQEREAQFGTTAEIYAYREEQDFGIEIVKVKAIGRQRFKVLELRTQSDGIQQAKVQILPECVLPSTYDAETLMDRIKKQLREWDENLKDDSLPSNPIDFSYRVAACLPIDDVLRIQLLKIGSAIQRLRCELDIMNKCTSLCCKQCQETEITTKNEIFSLSLCGPMAAYVNPHGYVHETLTVYKACNLNLIGRPSTEHSWFPGYAWTVAQCKICASHIGWKFTATKKDMSPQKFWGLTRSALLPTIPDTEDEISPDKVILCL
For B1, the “pomalidomide-dependent dimerization with IKZF3 degron (mBU)” value [3] was “pomalidomide-dependent interactions” and the “pomalidomide-dependent interaction with IKZF3 degron split receptor (BRET)” value [4] was “to a significantly lesser extent than any of the various plasma membrane-tethered versions”.
